Literature values in paper PMC6005205.

Biological target: ACKR3 (Homo sapiens) (UniProt P25106)
Sequence of UniProt P25106 (P25106 whole entry): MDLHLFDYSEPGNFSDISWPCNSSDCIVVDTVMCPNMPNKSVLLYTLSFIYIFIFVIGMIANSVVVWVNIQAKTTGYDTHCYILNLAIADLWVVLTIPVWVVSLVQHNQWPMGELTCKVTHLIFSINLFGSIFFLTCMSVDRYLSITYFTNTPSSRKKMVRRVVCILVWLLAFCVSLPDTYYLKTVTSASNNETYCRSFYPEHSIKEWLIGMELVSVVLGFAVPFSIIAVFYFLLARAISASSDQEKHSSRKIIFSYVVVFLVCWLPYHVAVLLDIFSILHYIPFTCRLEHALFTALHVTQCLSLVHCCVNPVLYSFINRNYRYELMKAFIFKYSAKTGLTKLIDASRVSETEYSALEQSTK

Kd: 0.2 nM
Substance: adrenomedullin (from UniProt P35318)
